Article PMC8628696, “Stable DNA Aptamer–Metal–Organic Framework as Horseradish Peroxidase Mimic for Ultra-Sensitive Detection of Carcinoembryonic Antigen in Serum”

Biological target: carcinoembryonic antigen (CEA) (human, UniProt P06731 35-685)
Test: colorimetric antibody-aptamer sandwich assay; MOF-grafted tetrahedron 25 ug/mL; CEA 20 ng/mL; antibody-captured CEA; Colorimetric sandwich assay: TMB 2 mM, H2O2 0.2 M, detection time 20 min; binding buffer, pH and temperature not given in the material (storage in PBS at 37 C)
Conditions: protein: commercial; label: grafted on PCN-222(Fe) MOF via 5' phosphates (peroxidase mimic); DNA tetrahedron of 4 strands with single-stranded 5' aptamer extension on strand D

Sequence of carcinoembryonic antigen (CEA) (P06731 35-685): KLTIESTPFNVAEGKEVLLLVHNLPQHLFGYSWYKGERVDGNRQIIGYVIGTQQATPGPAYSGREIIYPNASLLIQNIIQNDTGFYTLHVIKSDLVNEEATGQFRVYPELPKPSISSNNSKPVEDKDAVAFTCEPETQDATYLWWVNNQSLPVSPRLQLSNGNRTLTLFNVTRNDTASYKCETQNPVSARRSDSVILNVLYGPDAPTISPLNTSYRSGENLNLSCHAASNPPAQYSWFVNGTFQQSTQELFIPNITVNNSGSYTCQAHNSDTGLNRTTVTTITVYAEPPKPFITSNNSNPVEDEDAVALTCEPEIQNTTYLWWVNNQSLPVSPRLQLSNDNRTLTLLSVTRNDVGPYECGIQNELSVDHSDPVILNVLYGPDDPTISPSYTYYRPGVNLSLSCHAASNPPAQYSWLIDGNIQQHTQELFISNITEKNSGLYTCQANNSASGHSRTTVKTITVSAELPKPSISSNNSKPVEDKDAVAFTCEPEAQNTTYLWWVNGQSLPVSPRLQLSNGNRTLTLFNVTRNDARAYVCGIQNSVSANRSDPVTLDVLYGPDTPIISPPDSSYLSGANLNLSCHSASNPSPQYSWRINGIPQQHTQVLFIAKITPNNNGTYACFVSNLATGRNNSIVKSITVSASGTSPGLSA

B1: CEAapt-TDN (strands D+A+B+C) on PCN-222(Fe) MOF (structured_DNA)
DNA 1: ATACCAGCTTATTCAATTTTTTTTACATTCCTAAGTCTGAAACATTACAGCTTGCTACACGAGAAGAGCCGCCATAGTA
DNA 2: TATCACCAGGCAGTTGACAGTGTAGCAAGCTGTAATAGATGCGAGGGTCCAATAC
DNA 3: TCAACTGCCTGGTGATAAAACGACACTACGTGGGAATCTACTATGGCGGCTCTTC
DNA 4: TTCAGACTTAGGAATGTGCTTCCCACGTAGTGTCGTTTGTATTGGACCCTCGCAT
modifications: 5' phosphate on strands A, B and C
  binding result: binds
